Substitutions are numbered along the chain they refer to. In names and notes the source's numbering stands.
Legend:
H-Ras(G12V)-GTP [1] = target: T1, H-Ras(G12V)-GTP (Homo sapiens (Human), UniProt P01112 1-166); assay: radioactive in vitro pull-down on Ras-GTP beads (FIG. 6b)
T1 construct: also called H-Ras(G12V)-GppNHp; active H-Ras(G12V); not shown: avitag and His tag at the 5' (N-terminal) end

Rap1B(G12V)-GTP = target: T2, Rap1B(G12V)-GTP (Pan troglodytes (Chimpanzee), UniProt A5A6J7 1-166, biotinylated (pDW363 vector, BirA)); assay: radioactive in vitro pull-down of [35S]Met-labelled RasIn2 on bead-immobilised target [c]
T2 construct: also called Rap1B-GTP
T2 chain: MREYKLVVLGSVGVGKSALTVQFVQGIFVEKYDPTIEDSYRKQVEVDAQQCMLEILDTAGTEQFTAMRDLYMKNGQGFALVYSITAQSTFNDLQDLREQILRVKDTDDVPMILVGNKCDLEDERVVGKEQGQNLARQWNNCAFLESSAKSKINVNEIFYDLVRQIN

Arf1-GTP = target: T3, Arf1-GTP (UniProt P84077 18-179, biotinylated (pDW363 vector, BirA)); assay: as above
T3 construct: range 18-179

K-Ras(G12V, Y32R) [2] = target: T4, K-Ras(G12V, Y32R) (human, UniProt P01116-2 1-185, limits assumed, biotinylated (pDW363 vector, BirA)); assay: radioactive in vitro pull-down of [35S]Met-labelled RasIn2 on bead-immobilised target [d]
T4 construct: Made by site-directed mutagenesis of pDW363 K-Ras(G12V); also called Y32R Switch I mutant; Y32R mutation

K-Ras(G12V)-GTP [3] = target: T5, K-Ras(G12V)-GTP (human, UniProt P79800 1-166 (Meleagris gallopavo entry), biotinylated in vivo on the avitag (BirA)); assay: radioactive pull-down of RasIn1 on Ras-GTP beads; competitor Raf-RBD in molar excess
T5 construct: Active state: immobilised on neutravidin/streptavidin beads and exchanged with GTP or GTPγS; Same protein as m18, other nucleotide; also called K-Ras(G12V)-GTPγS; K-Ras(GTPγS); not shown: avitag and His tag at the 5' (N-terminal) end

K-Ras(G12V, Y32R) [4] = target: T4, K-Ras(G12V, Y32R); assay: radioactive in vitro pull-down of [35S]Met-labelled RasIn1 on bead-immobilised target [b]
H-Ras(G12V)-GTP [5] = target: T1, H-Ras(G12V)-GTP; assay: ELISA, biotin-labeled H-Ras(G12V)-GppNHp on streptavidin plate, anti-FLAG detection, OD450
H-Ras(G12V)-GTP [6] = target: T1, H-Ras(G12V)-GTP; assay: SPR, KD of RasIn2 against KD of the parent clone RasIn1
H-Ras(G12V)-GTP [7] = target: T1, H-Ras(G12V)-GTP; assay: SPR, Biacore T100, biotinylated H-Ras(G12V)-GppNHp on streptavidin chip, MBP-intrabody fusion injected, 25 C
K-Ras(G12V)-GTP [8] = target: T5, K-Ras(G12V)-GTP; assay: radioactive in vitro pull-down of [35S]-labelled RasIn1 and point mutants on immobilised K-Ras-GTP [a]
H-Ras(G12V)-GTP [9] = target: T1, H-Ras(G12V)-GTP; assay: SPR (Biacore T100), H-Ras(G12V) on a streptavidin chip exchanged with GppNHp, maltose binding protein-intrabody fusion injected [e]

B1: RasIn2 (designed binder)
chain: MLEVKEASPTSIQISWSIVFGKHDRYYRITYGETGGNSPVQEFTVPGSKSAATISGLKPGVDYTITVYAVTFRWPKRRLVRPISINYRT
notes: also called Clone 3; radiolabeled RasIn2
B1 was tested, and the “% binding (pull-down)” value (H-Ras(G12V)-GTP [1]) was greater than 70%, the binding result (Rap1B(G12V)-GTP) was “no binding” and the binding result (Arf1-GTP) was “no binding”. B1: no binding (K-Ras(G12V, Y32R) [2]).

B2: RasIn1 (designed binder)
chain: B1 chain with S17G, I18P, G21S, K22A, H23Y, D24S, K76M, R77P
notes: also called radiolabeled RasIn1; parental RasIn1 clone
For B2, the “fold decrease of binding with Raf-RBD” value (K-Ras(G12V)-GTP [3]) was 12 fold and the binding result (K-Ras(G12V, Y32R) [4]) was “no binding”.

B3: FLAG-tagged RasIn2 (designed binder, not shown: large carriers)
chain: B1 chain
notes: also called RasIn2 protein
For B3, the “fold ELISA signal versus Raf-RBD” value (H-Ras(G12V)-GTP [5]) was roughly 10 fold.

B4: RasIn2 maltose binding protein fusion (designed binder, not shown: large carriers)
chain: B1 chain
B4 was tested, and the “fold increase in affinity versus RasIn1” value (H-Ras(G12V)-GTP [6]) was roughly 20 fold and the Kd (H-Ras(G12V)-GTP [7]) was 120 nM.

B5: RasIn1 R77A (designed binder)
chain: B1 chain with S17G, I18P, G21S, K22A, H23Y, D24S, K76M, R77P, R78A
modifications: [35S]Met radiolabel from in vitro translation; letters unchanged
notes: FG loop mutant
B5: no binding (K-Ras(G12V)-GTP [8]).

B6: Clone 2 (designed binder)
chain: B1 chain with S17E, I18Y, K22R, V80L, R81W
notes: also called Clone 2 of maturation pool 5
B6 was tested, and the “% binding (pull-down)” value (H-Ras(G12V)-GTP [1]) was greater than 70%.

B7: Clone 1 (designed binder)
chain: B1 chain with S17G, I18R, G21S, K22L, H23D, D24S, K76N, R77P
notes: also called Clone 1 of maturation pool 5
B7 was tested, and the “% binding (pull-down)” value (H-Ras(G12V)-GTP [1]) was greater than 70%.

B8: Clone 4 (designed binder)
chain: B1 chain with S17G, I18S, G21R, K22A, H23D, D24S, K76R, R77P, V80L, R81W
notes: also called clone 4 of maturation pool 5
With B8 the “% binding (pull-down)” value (H-Ras(G12V)-GTP [1]) was greater than 70%.

B9: RasIn1 S24R (designed binder)
chain: B1 chain with S17G, I18P, G21S, K22A, H23Y, D24R, K76M, R77P
modifications: [35S]Met radiolabel from in vitro translation; letters unchanged
notes: Radiolabeled point mutant of RasIn1, BC loop
B9: no binding (K-Ras(G12V)-GTP [8]).

B10: RasIn1 maltose binding protein fusion (designed binder, not shown: large carriers)
chain: B1 chain with S17G, I18P, G21S, K22A, H23Y, D24S, K76M, R77P
B10 gave a Kd (H-Ras(G12V)-GTP [7]) of 2100 nM and a Kd (H-Ras(G12V)-GTP [9]) of 2000 nM.

B11: RasIn1 R72A (designed binder)
chain: B1 chain with S17G, I18P, G21S, K22A, H23Y, D24S, R73A, K76M, R77P
modifications: [35S]Met radiolabel from in vitro translation; letters unchanged
notes: FG loop mutant
B11: no binding (K-Ras(G12V)-GTP [8]).

Reference: patent US20180282397A1 (UNIVERSITY OF SOUTHERN CALIFORNIA, published 2018)
